Reference: paper PMC5715905, “Mechanistic insight into the assembly of the HerA–NurA helicase–nuclease DNA end resection complex” (Nucleic Acids Research, 2017)
“And” between values parts separate entries of the source, which are not always exact repeats. Identical values can stand only once. One block for each binder: values may come before it.

B4: HerA helicase, wild type (Sulfolobus solfataricus) (enzyme, S. solfataricus)
chain: MIIGYVIGQATTQEALILAERPVRLGTYVVLEYDNVKALGLITNVTRGSPMLDDNMNDIEIVQRLKQFNNSIPVYTKAKVKMLCDMNNHFLMPDIPPFAGTPAREAEDEELKSIYSQDGQIRIGSLIGKNVEVKLNINSFARHLAILAATGSGKSNTVAVLSQRISELGGSVLIFDYHGEYYDSDIKNLNRIEPKLNPLYMTPREFSTLLEIRENAIIQYRILRRAFIKVTNGIREKLKEGQIPFSTLNSQFYELMKDELETQGNSDKKSSAKDEVLNKFEEFMDRYSNVIDLTSSDIIEKVKRGKVNVVSLTQLDEDSMDAVVSHYLRRILDSRKDFKRSKNSGLKFPIIAVIEEAHVFLSKNENTLTKYWASRIAREGRKFGVGLTIVSQRPKGLDENILSQMTNKIILKIIEPTDKKYILESSDNLSEDLAEQLSSLDVGEAIIIGKIVKLPAVVKIDMFEGKLLGSDPDMIGEWKKVEESEKIAKGFADFGTEIGD
notes: HerA helicase of the thermophilic archaeon Sulfolobus solfataricus; In solution a mix of hexamer and heptamer; the hexamer is the form found with NurA; No tag is named in the purification; Expression and constructs may be described in the supplementary materials and methods; also called apo-HerA; wild-type HerA; source: cells lysed by sonication, lysate heated at 70°C, purified (Heparin HP, …)

Columns and labels:
[1] = target: B4; assay: native MS; HerA incubated with NurA and a 25 bp blunt-ended dsDNA (protein and DNA 1:1, 30 min at room temperature), no nucleotide, 200 mM ammonium acetate; settings: both partners purified
HerA K154A = target: T1, HerA K154A (thermophilic archaeon, Sulfolobus …, UniProt Q97WG8 1-500, K154A); assay: native MS; FA: 5 nM dsDNA, 100 mM NaCl, 20 mM Hepes-NaOH pH 8.0, 30 min room temperature (with nucleotide: 2 mM plus 5 mM MgCl2); native MS: 200 mM ammonium acetate pH 7.0-7.5, 1:1 protein:DNA, 30 min room temperature; settings: protein: recombinant; chain copies: 6; blunt
T1 sequence: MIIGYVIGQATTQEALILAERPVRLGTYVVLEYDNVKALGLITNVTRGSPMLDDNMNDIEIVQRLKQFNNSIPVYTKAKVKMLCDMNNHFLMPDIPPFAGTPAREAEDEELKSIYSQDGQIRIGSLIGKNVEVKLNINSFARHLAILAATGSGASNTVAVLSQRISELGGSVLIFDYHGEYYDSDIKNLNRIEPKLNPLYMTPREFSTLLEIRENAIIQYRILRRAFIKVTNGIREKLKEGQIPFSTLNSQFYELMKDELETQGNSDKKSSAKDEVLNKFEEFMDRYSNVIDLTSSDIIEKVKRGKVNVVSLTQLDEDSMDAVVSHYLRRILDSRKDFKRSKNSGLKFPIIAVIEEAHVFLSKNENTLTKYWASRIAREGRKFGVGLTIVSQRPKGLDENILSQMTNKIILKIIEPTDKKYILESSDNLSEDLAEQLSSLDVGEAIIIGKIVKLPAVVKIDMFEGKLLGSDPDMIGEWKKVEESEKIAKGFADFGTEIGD

HerA;NurA = target: T2, HerA;NurA (thermophilic archaeon, Sulfolobus …, UniProt Q97WG8;Q97WH1 1-500;1-339, |); assay: native MS; no nucleotide; dsDNA intact; FA: 5 nM dsDNA, 100 mM NaCl, 20 mM Hepes-NaOH pH 8.0, 30 min room temperature (with nucleotide: 2 mM plus 5 mM MgCl2); native MS: 200 mM ammonium acetate pH 7.0-7.5, 1:1 protein:DNA, 30 min room temperature; settings: protein: recombinant;recombinant; tags: ;; chain copies: 6;2; blunt
T2 sequence 1: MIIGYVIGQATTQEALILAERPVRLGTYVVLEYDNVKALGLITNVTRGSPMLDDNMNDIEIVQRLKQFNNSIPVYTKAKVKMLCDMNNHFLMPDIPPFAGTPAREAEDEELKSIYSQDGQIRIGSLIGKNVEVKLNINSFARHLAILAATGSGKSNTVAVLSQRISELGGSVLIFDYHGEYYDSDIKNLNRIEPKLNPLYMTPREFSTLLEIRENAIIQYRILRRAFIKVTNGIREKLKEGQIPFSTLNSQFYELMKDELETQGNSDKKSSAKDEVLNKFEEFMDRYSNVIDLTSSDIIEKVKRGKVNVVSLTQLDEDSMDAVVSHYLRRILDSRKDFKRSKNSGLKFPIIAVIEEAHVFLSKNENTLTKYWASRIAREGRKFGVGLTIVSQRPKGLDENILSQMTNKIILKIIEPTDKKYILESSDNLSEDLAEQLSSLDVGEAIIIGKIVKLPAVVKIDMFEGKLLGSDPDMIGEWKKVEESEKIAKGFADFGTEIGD
T2 sequence 2: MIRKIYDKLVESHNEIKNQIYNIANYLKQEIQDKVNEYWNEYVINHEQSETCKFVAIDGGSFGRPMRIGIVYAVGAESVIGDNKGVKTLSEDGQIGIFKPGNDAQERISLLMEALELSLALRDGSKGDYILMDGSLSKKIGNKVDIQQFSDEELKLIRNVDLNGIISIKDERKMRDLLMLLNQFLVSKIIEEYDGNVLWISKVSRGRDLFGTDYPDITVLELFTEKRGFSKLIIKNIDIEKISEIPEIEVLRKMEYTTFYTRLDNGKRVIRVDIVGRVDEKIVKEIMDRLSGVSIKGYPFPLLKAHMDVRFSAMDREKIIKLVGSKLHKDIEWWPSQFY

HerA;NurA H306A = target: T3, HerA;NurA H306A (thermophilic archaeon, Sulfolobus …, UniProt Q97WG8;Q97WH1 1-500;1-339, |H306A); assay: fluorescence anisotropy; no nucleotide; Hill fit; monomeric HerA concentration; FA: 5 nM dsDNA, 100 mM NaCl, 20 mM Hepes-NaOH pH 8.0, 30 min room temperature (with nucleotide: 2 mM plus 5 mM MgCl2); native MS: 200 mM ammonium acetate pH 7.0-7.5, 1:1 protein:DNA, 30 min room temperature; settings: protein: recombinant;recombinant; tags: ;; chain copies: 6;2; label: 5'-fluorescein on strand 1; blunt
T3 sequence 1: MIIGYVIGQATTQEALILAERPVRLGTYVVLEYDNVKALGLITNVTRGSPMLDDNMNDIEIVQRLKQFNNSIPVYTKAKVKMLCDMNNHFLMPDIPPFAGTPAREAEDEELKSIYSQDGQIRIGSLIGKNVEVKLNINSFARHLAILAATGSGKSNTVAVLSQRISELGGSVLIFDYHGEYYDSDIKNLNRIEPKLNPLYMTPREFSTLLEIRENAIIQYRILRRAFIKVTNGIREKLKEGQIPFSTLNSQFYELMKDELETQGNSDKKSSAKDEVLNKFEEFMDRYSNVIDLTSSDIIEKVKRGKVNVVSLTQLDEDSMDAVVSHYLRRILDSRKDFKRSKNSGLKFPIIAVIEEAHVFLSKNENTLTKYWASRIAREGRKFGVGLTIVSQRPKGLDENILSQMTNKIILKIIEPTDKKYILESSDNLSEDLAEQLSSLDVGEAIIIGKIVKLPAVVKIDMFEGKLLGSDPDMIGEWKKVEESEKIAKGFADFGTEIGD
T3 sequence 2: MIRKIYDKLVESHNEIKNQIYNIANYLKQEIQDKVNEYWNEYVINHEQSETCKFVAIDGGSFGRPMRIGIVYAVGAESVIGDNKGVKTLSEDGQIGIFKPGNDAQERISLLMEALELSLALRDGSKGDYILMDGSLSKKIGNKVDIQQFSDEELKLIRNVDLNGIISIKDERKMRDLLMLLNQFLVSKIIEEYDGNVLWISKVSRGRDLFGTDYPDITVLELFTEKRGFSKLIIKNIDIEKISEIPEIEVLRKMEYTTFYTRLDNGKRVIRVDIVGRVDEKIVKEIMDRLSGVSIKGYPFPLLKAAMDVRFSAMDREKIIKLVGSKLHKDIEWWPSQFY

HerA [2] = target: T4, HerA (thermophilic archaeon, Sulfolobus …, UniProt Q97WG8 1-500); assay: fluorescence anisotropy; no nucleotide; HerA monomer concentration; FA: 5 nM dsDNA, 100 mM NaCl, 20 mM Hepes-NaOH pH 8.0, 30 min room temperature (with nucleotide: 2 mM plus 5 mM MgCl2); native MS: 200 mM ammonium acetate pH 7.0-7.5, 1:1 protein:DNA, 30 min room temperature; settings: protein: recombinant; chain copies: 6; label: 5'-fluorescein on strand 1; blunt
T4 sequence: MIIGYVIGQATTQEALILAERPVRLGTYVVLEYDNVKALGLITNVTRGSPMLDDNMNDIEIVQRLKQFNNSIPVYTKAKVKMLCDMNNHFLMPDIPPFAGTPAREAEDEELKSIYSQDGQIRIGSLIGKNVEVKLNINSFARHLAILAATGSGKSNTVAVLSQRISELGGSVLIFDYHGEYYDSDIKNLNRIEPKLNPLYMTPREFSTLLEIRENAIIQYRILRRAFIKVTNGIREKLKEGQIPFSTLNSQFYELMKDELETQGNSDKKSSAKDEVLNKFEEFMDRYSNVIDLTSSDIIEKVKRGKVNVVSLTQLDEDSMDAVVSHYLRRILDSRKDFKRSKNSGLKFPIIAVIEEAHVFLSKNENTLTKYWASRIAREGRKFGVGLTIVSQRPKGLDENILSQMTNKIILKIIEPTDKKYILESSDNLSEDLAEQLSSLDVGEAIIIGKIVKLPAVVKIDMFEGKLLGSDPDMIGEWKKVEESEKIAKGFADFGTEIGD

HerA [3] = target: T4, HerA; assay: fluorescence anisotropy; 2 mM ATPgS, 5 mM MgCl2; HerA monomer concentration; FA: 5 nM dsDNA, 100 mM NaCl, 20 mM Hepes-NaOH pH 8.0, 30 min room temperature (with nucleotide: 2 mM plus 5 mM MgCl2); native MS: 200 mM ammonium acetate pH 7.0-7.5, 1:1 protein:DNA, 30 min room temperature; settings: protein: recombinant; chain copies: 6; label: 5'-fluorescein on strand 1; blunt
[4] = target: the molecule itself; assay: native MS; HerA alone, nucleotide-free (apo), 200 mM ammonium acetate pH 7.0-7.5, nano electrospray; relative intensities by UniDec

binding result [1]: binds
B1: NurA H306A, nuclease-inactive mutant (Sulfolobus solfataricus) (enzyme, S. solfataricus)
chain: MIRKIYDKLVESHNEIKNQIYNIANYLKQEIQDKVNEYWNEYVINHEQSETCKFVAIDGGSFGRPMRIGIVYAVGAESVIGDNKGVKTLSEDGQIGIFKPGNDAQERISLLMEALELSLALRDGSKGDYILMDGSLSKKIGNKVDIQQFSDEELKLIRNVDLNGIISIKDERKMRDLLMLLNQFLVSKIIEEYDGNVLWISKVSRGRDLFGTDYPDITVLELFTEKRGFSKLIIKNIDIEKISEIPEIEVLRKMEYTTFYTRLDNGKRVIRVDIVGRVDEKIVKEIMDRLSGVSIKGYPFPLLKAAMDVRFSAMDREKIIKLVGSKLHKDIEWWPSQFY
notes: NurA nuclease of Sulfolobus solfataricus with H306A; Made to prevent dsDNA degradation in the HerA-NurA-dsDNA complex; source: cells lysed by sonication, lysate heated at 70°C, purified (Heparin HP, HiTrap Q HP)

B2: 25 bp dsDNA (dsDNA)
DNA 1: GTAGTCCGGACGACAAACGCCGACT
DNA 2: AGTCGGCGTTTGTCGTCCGGACTAC
binding result (HerA K154A): no binding
binding result (HerA;NurA): binds

B3: 5'-fluorescein 25 bp dsDNA (dsDNA)
DNA 1: GTAGTCCGGACGACAAACGCCGACT
DNA 2: AGTCGGCGTTTGTCGTCCGGACTAC
Kd (HerA;NurA H306A): 0.51 ± 0.0304 µM
Kd (HerA [2]): 4.85 ± 0.47 µM
Kd (HerA [3]): 3.22 ± 0.27 µM

Binder: B4
abundance of the heptamer over the hexamer [4]: ~10 fold
stoichiometry N [4]: 6 and 7
